Here are results for two proteins from article doi:10.1101/511345 (bioRxiv, 2019).

The series “cryo-EM structure” concerns the molecule itself. As to the kind of experiment: cryo-EM structure.
The series “crystal structure” deals with the molecule itself. As to the kind of experiment: crystal structure.

B1: Quasibacillus thermotolerans (Qs) IMEF encapsulin capsid protein, assembled T = 4 shell (natural protein)
chain: MNKSQLYPDSPLTDQDFNQLDQTVIEAARRQLVGRRFIELYGPLGRGMQSVFNDIFMESHEAKMDFQGSFDTEVESSRRVNYTIPMLYKDFVLYWRDLEQSKALDIPIDFSVAANAARDVAFLEDQMIFHGSKEFDIPGLMNVKGRLTHLIGNWYESGNAFQDIVEARNKLLEMNHNGPYALVLSPELYSLLHRVHKDTNVLEIEHVRELITAGVFQSPVLKGKSGVIVNTGRNNLDLAISEDFETAYLGEEGMNHPFRVYETVVLRIKRPAAICTLIDPEE
The term stoichiometry N denotes the number of molecules, sites or subunits per partner or assembly. For B1, the “stoichiometry N” value in “cryo-EM structure” amounted to 240.

B2: Qs IMEF cargo protein, purified alone and crystallised (natural protein)
chain: MKEELDAFHQIFTTTKEAIERFMAMLTPVIENAEDDHERLYYHHIYEEEEQRLSRLDVLIPLIEKFQDETDEGLFSPSNNAFNRLLQELNLEKFGLHNFIEHVDLALFSFTDEERQTLLKELRKDAYEGYQYVKEKLAEINARFDHDYADPHAHHDEHRDHLADMPSAGSSHEEVQPVAHKKKGFTVGSLIQ
Regarding B2, in “crystal structure”, the “stoichiometry N” value came to 2.
